Reference: publication PMC11062913, “Structural basis of Integrator-dependent RNA polymerase II termination” (Nature, 2024)

Target: T1, Integrator subunit INTS11(E203Q) (human, UniProt Q5TA45 1-600, E203Q)
T1 construct: INTS11, human; endonuclease subunit of the Integrator cleavage module; E203Q mutant with reduced catalytic activity used in all complexes for cryo-EM and XL-MS; Stood in the assays as a subunit of the Integrator–PP2A complex; also called INTS11(E203Q) mutant
Test: cross-linking; XL-MS of the PEC–Integrator–PP2A–SOSS complex (mixed population of pre- and post-termination complexes): pooled glycerol-gradient peak fractions, 3 mM BS3, 30 min, 30 °C
Details: both partners purified

B1: NABP2 (natural protein, human, UniProt Q9BQ15-1 1-211, looked up)
chain: MTTETFVKDIKPGLKNLNLIFIVLETGRVTKTKDGHEVRTCKVADKTGSINISVWDDVGNLIQPGDIIRLTKGYASVFKGCLTLYTGRGGDLQKIGEFCMVYSEVPNFSEPNPEYSTQQAPNKAVQNDSNPSASQPTTGPSAASPASENQNGNGLSAPPGPGGGPHPPHTPSHPPSTRITRSQPNHTPAGPPGPSSNPVSNGKETRRSSKR
notes: Treated with lambda protein phosphatase during purification; also called SOSS factor NABP2
B1: binds.
